Measurements: patent publication USRE49583E1, “Inducible expression systems” (priority 2005, dated 2023)
“Also recorded” adds a separate entry of the source.

B1: V9I C68R G138D F86Y A209T: rtTA variant with these amino acid substitutions (protein)
chain: MSRLDKSKIINSALELLNGVGIEGLTTRKLAQKLGVEQPTLYWHVKNKRALLDALPIEMLDRHHTHFRPLEGESWQDFLRNNAKSYRCALLSHRDGAKVHLGTRPTEKQYETLENQLAFLCQQGFSLENALYALSAVDHFTLGCVLEEQEHQVAKEERETPTTDSMPPLLRQAIELFDRQGAEPAFLFGLELIICGLEKQLKCESGGPTDALDDFDLDMLPADALDDFDLDMLPADALDDFDLDMLPG
B2: V9I G19M G138D F86Y: rtTA variant with these amino acid substitutions (protein)
chain: MSRLDKSKIINSALELLNMVGIEGLTTRKLAQKLGVEQPTLYWHVKNKRALLDALPIEMLDRHHTHFCPLEGESWQDFLRNNAKSYRCALLSHRDGAKVHLGTRPTEKQYETLENQLAFLCQQGFSLENALYALSAVDHFTLGCVLEEQEHQVAKEERETPTTDSMPPLLRQAIELFDRQGAEPAFLFGLELIICGLEKQLKCESGGPADALDDFDLDMLPADALDDFDLDMLPADALDDFDLDMLPG
B3: V9I E37Q G138D F86Y A209T: rtTA variant with these amino acid substitutions (protein)
chain: MSRLDKSKIINSALELLNGVGIEGLTTRKLAQKLGVQQPTLYWHVKNKRALLDALPIEMLDRHHTHFCPLEGESWQDFLRNNAKSYRCALLSHRDGAKVHLGTRPTEKQYETLENQLAFLCQQGFSLENALYALSAVDHFTLGCVLEEQEHQVAKEERETPTTDSMPPLLRQAIELFDRQGAEPAFLFGLELIICGLEKQLKCESGGPTDALDDFDLDMLPADALDDFDLDMLPADALDDFDLDMLPG
B4: V9I G19M G138D F86Y A209T: rtTA variant with these amino acid substitutions (protein)
chain: MSRLDKSKIINSALELLNMVGIEGLTTRKLAQKLGVEQPTLYWHVKNKRALLDALPIEMLDRHHTHFCPLEGESWQDFLRNNAKSYRCALLSHRDGAKVHLGTRPTEKQYETLENQLAFLCQQGFSLENALYALSAVDHFTLGCVLEEQEHQVAKEERETPTTDSMPPLLRQAIELFDRQGAEPAFLFGLELIICGLEKQLKCESGGPTDALDDFDLDMLPADALDDFDLDMLPADALDDFDLDMLPG
B5: V9I E37Q G138D F86Y: rtTA variant with these amino acid substitutions (protein)
chain: MSRLDKSKIINSALELLNGVGIEGLTTRKLAQKLGVQQPTLYWHVKNKRALLDALPIEMLDRHHTHFCPLEGESWQDFLRNNAKSYRCALLSHRDGAKVHLGTRPTEKQYETLENQLAFLCQQGFSLENALYALSAVDHFTLGCVLEEQEHQVAKEERETPTTDSMPPLLRQAIELFDRQGAEPAFLFGLELIICGLEKQLKCESGGPADALDDFDLDMLPADALDDFDLDMLPADALDDFDLDMLPG
B6: V9I G19M F67S G138D F86Y A209T: rtTA variant with these amino acid substitutions (protein)
chain: MSRLDKSKIINSALELLNMVGIEGLTTRKLAQKLGVEQPTLYWHVKNKRALLDALPIEMLDRHHTHSCPLEGESWQDFLRNNAKSYRCALLSHRDGAKVHLGTRPTEKQYETLENQLAFLCQQGFSLENALYALSAVDHFTLGCVLEEQEHQVAKEERETPTTDSMPPLLRQAIELFDRQGAEPAFLFGLELIICGLEKQLKCESGGPTDALDDFDLDMLPADALDDFDLDMLPADALDDFDLDMLPG
B7: V9I G19M F67S G138D F86Y: rtTA variant with these amino acid substitutions (protein)
chain: MSRLDKSKIINSALELLNMVGIEGLTTRKLAQKLGVEQPTLYWHVKNKRALLDALPIEMLDRHHTHSCPLEGESWQDFLRNNAKSYRCALLSHRDGAKVHLGTRPTEKQYETLENQLAFLCQQGFSLENALYALSAVDHFTLGCVLEEQEHQVAKEERETPTTDSMPPLLRQAIELFDRQGAEPAFLFGLELIICGLEKQLKCESGGPADALDDFDLDMLPADALDDFDLDMLPADALDDFDLDMLPG
B8: V9I S12G F67S G138D F86Y: rtTA variant with these amino acid substitutions (protein)
chain: MSRLDKSKIINGALELLNGVGIEGLTTRKLAQKLGVEQPTLYWHVKNKRALLDALPIEMLDRHHTHSCPLEGESWQDFLRNNAKSYRCALLSHRDGAKVHLGTRPTEKQYETLENQLAFLCQQGFSLENALYALSAVDHFTLGCVLEEQEHQVAKEERETPTTDSMPPLLRQAIELFDRQGAEPAFLFGLELIICGLEKQLKCESGGPADALDDFDLDMLPADALDDFDLDMLPADALDDFDLDMLPG
B9: V9I S12G F67S G138D F86Y A209T: rtTA variant with these amino acid substitutions (protein)
chain: MSRLDKSKIINGALELLNGVGIEGLTTRKLAQKLGVEQPTLYWHVKNKRALLDALPIEMLDRHHTHSCPLEGESWQDFLRNNAKSYRCALLSHRDGAKVHLGTRPTEKQYETLENQLAFLCQQGFSLENALYALSAVDHFTLGCVLEEQEHQVAKEERETPTTDSMPPLLRQAIELFDRQGAEPAFLFGLELIICGLEKQLKCESGGPTDALDDFDLDMLPADALDDFDLDMLPADALDDFDLDMLPG

Test system: chromosomally integrated CMV-7tetO luciferase reporter in HeLa X1/6 cells
Assay: rtTA activity assay, HeLa X1/6 cells with integrated CMV-7tetO luciferase reporter (Example 1, FIG. 2-3, 5, 14, 15)
Assay type: cell-based
Settings: for rtTA activation by minocycline (Mc): 0-10000 ng/ml Mc; for rtTA activation by tetracycline (Tc): 0-10000 ng/ml Tc; for basal / background activity in the absence of inducer: no dox or other effector
Description: To test whether this rtTA optimization reflects a specific adaptation to the viral LTR-2ΔtetO promoter, we assayed rtTA activity with a reporter gene construct in which luciferase expression is under the control of a minimal CMV promoter coupled to an array of seven tetO elements. […] Thus, the observed mutations in rtTA are not virus-specific adaptations, but are general improvements of the Tet-on system. We also assayed rtTA activity in HeLa X1/6 cells that contain chromosomally integrated copies of the CMV-7tetO luciferase reporter construct (FIG. 2C). In these cells, the evolved rtTAs show a similar pattern of activity as with episomal reporter gene constructs in C33A cells. Thus, these mutations improve rtTA activity independent of the type of promoter and the episomal or chromosomal status of the target gene.
The V10 variant needs only 44 ng/ml dox to reach this activity level, which reflects a 23-fold higher dox-sensitivity than the wild-type rtTA.
rtTA activity assay. Two firefly luciferase reporter constructs with different promoter configurations were used. pLTR-2ΔtetO-luc contains the LTR-2ΔtetO promoter derived from the HIV-rtTA molecular clone (Marzio et al. 2001; Marzio et al. 2002). pCMV-7tetO-luc, previously named pUHC13-3 (Gossen et al. 1992), contains seven tetO elements located upstream of a minimal CMV promoter. The plasmid pRL-CMV (PROMEGA®, Madison, Wis., USA), in which the expression of Renilla luciferase is controlled by the CMV promoter, was used as an internal control to allow correction for differences in transfection efficiency.
C33A and HeLa X1/6 cells were grown in 2-cm^2 wells to 60% confluency and transfected by the calcium phosphate precipitation method (Das et al. 1999). C33A cells were transfected with 0.4 ng pCMV-rtTA (wild-type or mutant), 20 ng pLTR-2ΔtetO-luc or pCMV-7tetO-luc, 0.5 ng pRL-CMV, and 980 ng pBluescript as carrier DNA. HeLa X1/6 cells were transfected with 8 ng pCMV-rtTA, 2.5 ng pRL-CMV, and 990 ng pBluescript. The amount of the DNA constructs was optimized for each cell type to keep rtTA-mediated transactivation within the linear range and to avoid squelching of transcription factors. Cells were cultured for 48 hours in the presence of different concentrations of dox, Tc or Mc, and lysed in Passive Lysis Buffer (PROMEGA®). Firefly and Renilla luciferase activities were determined with the dual-luciferase reporter assay (PROMEGA®). The activity of the rtTA variants was calculated as the ratio of the firefly and Renilla luciferase activities, and corrected for between-session variation.
FIG. 2. Novel rtTA variants show increased activity and dox-sensitivity in different Tet systems. The transcriptional activity of rtTA variants was measured in C33A cells transfected with a plasmid carrying the firefly luciferase reporter gene under the control of the viral LTR-2ΔtetO promoter (LTR-2ΔtetO; A) or under the control of a minimal CMV-derived promoter coupled to seven tetO elements (CMV7-tetO; B). Furthermore, rtTA activity was measured in HeLa X1/6 cells (Baron et al. 1997) that contain a chromosomally integrated copy of the CMV-7tetO reporter construct (CMV7tetO-integrated; C, D). Variants V1 to V10 were compared in all three Tet systems (panels A-C) and variants V11 to V18 in the cells with the integrated reporter (panel D). Cells were transfected with the indicated rtTA expression plasmid or pBluescript as a negative control, and a plasmid constitutively expressing Renilla luciferase to correct for differences in transfection efficiency. Cells were cultured in the presence of different dox concentrations (0-1000 ng/ml). The ratio of the firefly and Renilla luciferase activities measured 2 days after transfection reflects the rtTA activity. All values were related to the wild-type (wt) rtTA activity at 1000 ng/ml dox, which was arbitrarily set at 100%. In (C and D), average values of three transfections are shown with error bars indicating the standard deviation.
FIG. 3. […]

[1] = listed as C68R V9I G138D F86Y A209T
[2] = listed as S12G F67S V9I G138D F86Y A209T

Row | Molecule | basal / background activity in the absence of inducer | rtTA activation by minocycline (Mc) | rtTA activation by tetracycline (Tc) | also measured
1 | B1 | no or low basal activity | – | – | rtTA activation by minocycline (Mc) [1]: particularly sensitive for minocycline; also recorded: very sensitive for minocycline; rtTA activation by tetracycline (Tc) [1]: particularly sensitive for tetracycline; also recorded: very sensitive for tetracycline; basal / background activity in the absence of inducer [1]: low background activity
2 | B2 | no or low basal activity | – | – | –
3 | B3 | no or low basal activity | particularly sensitive for minocycline | particularly sensitive for tetracycline | –
4 | B4 | no or low basal activity | particularly sensitive for minocycline | particularly sensitive for tetracycline | –
5 | B5 | no or low basal activity | – | – | –
6 | B6 | no or low basal activity | particularly sensitive for minocycline | particularly sensitive for tetracycline | –
7 | B7 | no or low basal activity | – | – | –
8 | B8 | no or low basal activity | – | – | –
9 | B9 | no or low basal activity | – | – | rtTA activation by minocycline (Mc) [2]: particularly sensitive for minocycline; also recorded: very sensitive for minocycline; rtTA activation by tetracycline (Tc) (listed as 512G F67S V9I G138D F86Y A209T): particularly sensitive for tetracycline; rtTA activation by tetracycline (Tc) [2]: very sensitive for tetracycline; basal / background activity in the absence of inducer [2]: low background activity
